Reference: the supplement of paper PMC11246515
± gives the standard deviation of the averaged measurements.

Test: total protein half-life in vivo (active degradation + dilution); higher = more stable protein
[1] = E. coli NCM3722 delta-clpP delta-lon delta-hslV, growth: N-lim chemostat, doubling time 6 h
[2] = E. coli NCM3722 delta-clpP, growth: N-lim chemostat, doubling time 6 h
[3] = E. coli NCM3722 delta-hslV, growth: N-lim chemostat, doubling time 6 h
[4] = E. coli NCM3722 delta-lon, growth: N-lim chemostat, doubling time 6 h
[5] = E. coli NCM3722 delta-smpB, growth: N-lim chemostat, doubling time 6 h
[6] = wild type E. coli NCM3722, growth: C-lim chemostat, doubling time 3 h
[7] = wild type E. coli NCM3722, growth: C-lim chemostat, doubling time 6 h
[8] = wild type E. coli NCM3722, growth: C-lim chemostat, doubling time 12 h
[9] = wild type E. coli NCM3722, growth: N-lim chemostat, doubling time 6 h
[10] = wild type E. coli NCM3722, growth: N-lim chemostat, doubling time 12 h
[11] = wild type E. coli NCM3722, growth: P-lim chemostat, doubling time 6 h
[12] = wild type E. coli NCM3722, growth: P-lim chemostat, doubling time 12 h

Sequence	total protein half-life in vivo [1] [h]	total protein half-life in vivo [2] [h]	total protein half-life in vivo [3] [h]	total protein half-life in vivo [4] [h]	total protein half-life in vivo [5] [h]	total protein half-life in vivo [6] [h]	total protein half-life in vivo [7] [h]	total protein half-life in vivo [8] [h]	total protein half-life in vivo [9] [h]	total protein half-life in vivo [10] [h]	total protein half-life in vivo [11] [h]	total protein half-life in vivo [12] [h]
MDEYSPKRHDIAQLKFLCETLYHDCLANLEESNHGWVNDPTSAINLQLNELIEHIATFALNYKIKYNEDNKLIEQIDEYLDDTFMLFSSYGINMQDLQKWRKSGNRLFRCFVNATKENPASLSC [P0AAR0]	5.61 ± 0.1	7.07	–	–	–	–	–	–	–	–	–	–
MDFFSVQNILVHIPIGAGGYDLSWIEAVGTIAGLLCIGLASLEKISNYFFGLINVTLFGIIFFQIQLYASLLLQVFFFAANIYGWYAWSRQTSQNEAELKIRWLPLPKALSWLAVCVVSIGLMTVFINPVFAFLTRVAVMIMQALGLQVVMPELQPDAFPFWDSCMMVLSIVAMILMTRKYVENWLLWVIINVISVVIFALQGVYAMSLEYIILTFIALNGSRMWINSARERGSRALSH [P0AFK2]	6.22	6.15 ± 0.15	6.54	5.58 ± 0.22	5.5 ± 0.096	3.29 ± 0.33	6.14 ± 0.31	11.8 ± 2.2	6.05	11.5 ± 3	6.07 ± 0.39	–
MDFSIMVYAVIALVGVAIGWLFASYQHAQQKAEQLAEREEMVAELSAAKQQITQSEHWRAECELLNNEVRSLQSINTSLEADLREVTTRMEAAQQHADDKIRQMINSEQRLSEQFENLANRIFEHSNRRVDEQNRQSLNSLLSPLREQLDGFRRQVQDSFGKEAQERHTLTHEIRNLQQLNAQMAQEAINLTRALKGDNKTQGNWGEVVLTRVLEASGLREGYEYETQVSIENDARSRMQPDVIVRLPQGKDVVIDAKMTLVAYERYFNAEDDYTRESALQEHIASVRNHIRLLGRKDYQQLPGLRTLDYVLMFIPVEPAFLLALDRQPELITEALKNNIMLVSPTTLLVALRTIANLWRYEHQSRNAQQIADRASKLYDKMRLFIDDMSAIGQSLDKAQDNYRQAMKKLSSGRGNVLAQAEAFRGLGVEIKREINPDLAEQAVSQDEEYRLRSVPEQPNDEAYQRDDEYNQQSR [P0AG71]	6.83 ± 1.6	5.88 ± 0.096	4.5 ± 0.072	3.82 ± 0.52	3.36 ± 0.004	2.76 ± 0.076	4.87 ± 0.12	7.51 ± 0.44	3.91 ± 0.74	7.2 ± 1.9	4.59 ± 1.3	7.03 ± 0.77
MDICSRNKKLTIRRPAILVALALLLCSCKSTPPESMVTPPAGSKPPATTQQSSQPMRGIWLATVSRLDWPPVSSVNISNPTSRARVQQQAMIDKLDHLQRLGINTVFFQVKPDGTALWPSKILPWSDLMTGKIGENPGYDPLQFMLDEAHKRGMKVHAWFNPYRVSVNTKPGTIRELNSTLSQQPASVYVQHRDWIRTSGDRFVLDPGIPEVQDWITSIVAEVVSRYPVDGVQFDDYFYTESPGSRLNDNETYRKYGGAFASKADWRRNNTQQLIAKVSHTIKSIKPGVEFGVSPAGVWRNRSHDPLGSDTRGAAAYDESYADTRRWVEQGLLDYIAPQIYWPFSRSAARYDVLAKWWADVVKPTRTRLYIGIAFYKVGEPSKIEPDWMINGGVPELKKQLDLNDAVPEISGTILFREDYLNKPQTQQAVSYLQSRWGS	> 8	4.93 ± 1.2	1.61	2.787 ± 0.01	1.73 ± 0.075	–	–	–	1.89 ± 0.55	3.44 ± 0.99	2.29 ± 0.57	4.65 ± 0.26
MDIPVNAAKPGRRRYLTLVMIFITVVICYVDRANLAVASAHIQEEFGITKAEMGYVFSAFAWLYTLCQIPGGWFLDRVGSRVTYFIAIFGWSVATLFQGFATGLMSLIGLRAITGIFEAPAFPTNNRMVTSWFPEHERASAVGFYTSGQFVGLAFLTPLLIWIQEMLSWHWVFIVTGGIGIIWSLIWFKVYQPPRLTKGISKAELDYIRDGGGLVDGDAPVKKEARQPLTAKDWKLVFHRKLIGVYLGQFAVASTLWFFLTWFPNYLTQEKGITALKAGFMTTVPFLAAFVGVLLSGWVADLLVRKGFSLGFARKTPIICGLLISTCIMGANYTNDPMMIMCLMALAFFGNGFASITWSLVSSLAPMRLIGLTGGVFNFAGGLGGITVPLVVGYLAQGYGFAPALVYISAVALIGALSYILLVGDVKRVG [P0AA76]	–	–	–	–	–	–	4.54 ± 0.49	7.29 ± 0.43	–	–	–	–
MDKFRVQGPTKLQGEVTISGAKNAALPILFAALLAEEPVEIQNVPKLKDVDTSMKLLSQLGAKVERNGSVHIDARDVNVFCAPYDLVKTMRASIWALGPLVARFGQGQVSLPGGCTIGARPVDLHISGLEQLGATIKLEEGYVKASVDGRLKGAHIVMDKVSVGATVTIMCAATLAEGTTIIENAAREPEIVDTANFLITLGAKISGQGTDRIVIEGVERLGGGVYRVLPDRIETGTFLVAAAISRGKIICRNAQPDTLDAVLAKLRDAGADIEVGEDWISLDMHGKRPKAVNVRTAPHPAFPTDMQAQFTLLNLVAEGTGFITETVFENRFMHVPELSRMGAHAEIESNTVICHGVEKLSGAQVMATDLRASASLVLAGCIAEGTTVVDRIYHIDRGYERIEDKLRALGANIERVKGE [P0A749]	4.88 ± 0.64	3.91 ± 0.28	3.48 ± 0.22	4.25 ± 0.55	3.39 ± 0.23	2.92 ± 0.043	6.05 ± 1.2	9.85 ± 0.48	3.47 ± 0.084	5.28 ± 0.25	5.53 ± 0.1	10.9 ± 0.56
MDKIFVDEAVNELQTIQDMLRWSVSRFSAANIWYGHGTDNPWDEAVQLVLPSLYLPLDIPEDMRTARLTSSEKHRIVERVIRRVNERIPVAYLTNKAWFCGHEFYVDERVLVPRSPIGELINNKFAGLISKQPQHILDMCTGSGCIAIACAYAFPDAEVDAVDISPDALAVAEQNIEEHGLIHNVIPIRSDLFRDLPKVQYDLIVTNPPYVDAEDMSDLPNEYRHEPELGLASGTDGLKLTRRILGNAADYLADDGVLICEVGNSMVHLMEQYPDVPFTWLEFDNGGDGVFMLTKEQLIAAREHFAIYKD	5.46 ± 2.1	3.84 ± 0.055	3.656 ± 0.0091	3.97 ± 0.38	3.9 ± 0.11	2.81 ± 0.12	5.74 ± 0.41	10 ± 0.21	3.85 ± 0.054	6.16 ± 0.26	5.56 ± 0.2	11 ± 1.2
MDKLLERFLNYVSLDTQSKAGVRQVPSTEGQWKLLHLLKEQLEEMGLINVTLSEKGTLMATLPANVPGDIPAIGFISHVDTSPDCSGKNVNPQIVENYRGGDIALGIGDEVLSPVMFPVLHQLLGQTLITTDGKTLLGADDKAGIAEIMTALAVLQQKKIPHGDIRVAFTPDEEVGKGAKHFDVDAFDARWAYTVDGGGVGELEFENFNAASVNIKIVGNNVHPGTAKGVMVNALSLAARIHAEVPADESPEMTEGYEGFYHLASMKGTVERADMHYIIRDFDRKQFEARKRKMMEIAKKVGKGLHPDCYIELVIEDSYYNMREKVVEHPHILDIAQQAMRDCDIEPELKPIRGGTDGAQLSFMGLPCPNLFTGGYNYHGKHEFVTLEGMEKAVQVIVRIAELTAQRK	4.47 ± 0.093	4.26 ± 0.49	3.88 ± 0.14	4.53 ± 0.13	4.04 ± 0.089	3.079 ± 0.019	6.32 ± 1.1	9.74 ± 0.59	3.97 ± 0.13	5.85 ± 0.25	5.38 ± 0.2	10.3 ± 0.14
